The results in this text go back to FireProtDB (doi:10.1111/j.1432-1033.1994.tb18652.x).

B1: Guanyl-specific ribonuclease T1, P00651 (parent)
chain: MMYSKLLTLTTLLLPTALALPSLVERACDYTCGSNCYSSSDVSTAQAAGYQLHEDGETVGSNSYPHKYNNYEGFDFSVSSPYYEWPILSSGDVYSGGSPGADRVVFNENNQLAGVITHTGASGNNFVECT

Variants of B1 are the subject of this series. Conditions: Aspergillus oryzae (strain ATCC 42149 / RIB 40), pH 6, Thermal, DSC, sodium acetate calcium acetate 20 mM 2 mM, Mops 50 mM, reversible: yes, structure 1RN1, whole UniProt chain shown; for ddG of mutation (higher = less stable) / heat capacity change of unfolding / unfolding free energy: 25 °C.

On to H66T, for which the “ddG of mutation (higher = less stable)” value was found to be 0.26 kcal/mol; the “heat capacity change of unfolding” value was found to be 0.98 kcal/mol/K; the Tm was determined as 56.7 °C; the “change of melting temperature, mutant - wild type (higher = more stable)” value (“change of melting temperature, mutant” below) is -0.5 °C. The “unfolding enthalpy (calorimetric)” value was determined as 100 kcal/mol.

Take Y71W: the “heat capacity change of unfolding” value turned out to be 0.98 kcal/mol/K; the unfolding free energy worked out at 8.56 kcal/mol; the Tm came out at 55.9 °C; the “change of melting temperature, mutant” value was -1.3 °C. Moreover, the “unfolding enthalpy (calorimetric)” value came to 107 kcal/mol.

Consider W85Y H118A, for which the “ddG of mutation (higher = less stable)” value turned out to be 1.53 kcal/mol, the “heat capacity change of unfolding” value came out at 0.98 kcal/mol/K, the unfolding free energy was found to be 6.26 kcal/mol and the Tm is 53.2 °C. In addition, the “change of melting temperature, mutant” value was -4 °C and the “unfolding enthalpy (calorimetric)” value was found to be 87 kcal/mol.

Take H118A: the “ddG of mutation (higher = less stable)” value was found to be 0.62 kcal/mol, the “heat capacity change of unfolding” value worked out at 0.98 kcal/mol/K and the unfolding free energy stood at 7.19 kcal/mol.

Y71W W85Y: the “ddG of mutation (higher = less stable)” value was 0.91 kcal/mol, the “heat capacity change of unfolding” value is 0.98 kcal/mol/K, the unfolding free energy worked out at 6.91 kcal/mol and the Tm was found to be 52.8 °C. The “change of melting temperature, mutant” value was -4.4 °C and the “unfolding enthalpy (calorimetric)” value worked out at 95.1 kcal/mol.

For Y50W, the “ddG of mutation (higher = less stable)” value was -1.24 kcal/mol, the “heat capacity change of unfolding” value came out at 0.98 kcal/mol/K, the unfolding free energy came out at 9.03 kcal/mol and the Tm stood at 58.8 °C. The “change of melting temperature, mutant” value came to 1.6 °C and the “unfolding enthalpy (calorimetric)” value is 106 kcal/mol.

As to Y68W W85Y, the “ddG of mutation (higher = less stable)” value is 1.03 kcal/mol, the “heat capacity change of unfolding” value was 0.98 kcal/mol/K, the unfolding free energy came to 6.76 kcal/mol and the melting temperature (Tm) stood at 53.7 °C. The “change of melting temperature, mutant” value is -3.5 °C and the “unfolding enthalpy (calorimetric)” value came to 91.8 kcal/mol.

Turning to Y50W W85Y, the “ddG of mutation (higher = less stable)” value is -0.29 kcal/mol, the “heat capacity change of unfolding” value came to 0.98 kcal/mol/K, the unfolding free energy came out at 8.1 kcal/mol and the Tm was 56.6 °C. Further, the “change of melting temperature, mutant” value is -0.6 °C and the “unfolding enthalpy (calorimetric)” value stood at 101 kcal/mol.

As for H66T W85Y, the “ddG of mutation (higher = less stable)” value was 0.93 kcal/mol, the “heat capacity change of unfolding” value was 0.98 kcal/mol/K, the unfolding free energy amounted to 6.88 kcal/mol and the Tm is 53.9 °C. For the same variant, the “change of melting temperature, mutant” value is -3.3 °C and the “unfolding enthalpy (calorimetric)” value amounted to 92.5 kcal/mol.

Take Y68W: the “ddG of mutation (higher = less stable)” value came out at 0.14 kcal/mol, the “heat capacity change of unfolding” value amounted to 0.98 kcal/mol/K, the unfolding free energy amounted to 7.67 kcal/mol and the midpoint of thermal melting (Tm) worked out at 56.6 °C. The “change of melting temperature, mutant” value was -0.6 °C and the “unfolding enthalpy (calorimetric)” value turned out to be 96.1 kcal/mol.

On to W85Y, for which the “ddG of mutation (higher = less stable)” value was determined as 0.93 kcal/mol, the “heat capacity change of unfolding” value was found to be 0.98 kcal/mol/K, the unfolding free energy turned out to be 6.88 kcal/mol and the Tm is 54.3 °C. Moreover, the “change of melting temperature, mutant” value is -2.9 °C and the “unfolding enthalpy (calorimetric)” value worked out at 91.8 kcal/mol.
